Assay results reported in patent US20200002432A1, “ANTI-CD98 ANTIBODIES AND ANTIBODY DRUG CONJUGATES” (AbbVie Inc., priority 2016, published 2020).
Residue numbers refer to the chain shown, from its start. Values belong to the molecule of their own block, whether it stands above or below them.

How the values were obtained:
[1] = biological target: T1, Cynomolgus monkey CD98 ECD with C-terminal His-tag (cynomolgus monkey, UniProt P08195 105-529 (human entry)); assay: SPR (Biacore), mAb captured on anti-Fc, CD98 ECD as analyte
T1 construct: also called cyCD98 ECD; recombinant cynomolgus monkey CD98 extracellular domain
T1 chain: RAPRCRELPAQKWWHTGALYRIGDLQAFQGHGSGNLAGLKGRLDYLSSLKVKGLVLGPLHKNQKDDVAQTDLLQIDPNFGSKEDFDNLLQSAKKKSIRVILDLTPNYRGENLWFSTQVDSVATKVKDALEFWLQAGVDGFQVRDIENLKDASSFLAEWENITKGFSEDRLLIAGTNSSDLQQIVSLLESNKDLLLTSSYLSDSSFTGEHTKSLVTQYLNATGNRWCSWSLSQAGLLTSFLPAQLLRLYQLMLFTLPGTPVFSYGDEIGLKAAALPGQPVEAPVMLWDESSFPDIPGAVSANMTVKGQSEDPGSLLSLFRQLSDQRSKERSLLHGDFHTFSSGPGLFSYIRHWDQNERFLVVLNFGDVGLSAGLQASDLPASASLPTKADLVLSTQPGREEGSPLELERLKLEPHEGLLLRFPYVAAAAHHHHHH
Procedure: (§1) The binding kinetics of these purified mouse and rat monoclonal anti-CD98 antibodies for purified recombinant CD98 protein (extracellular domain, ECD) were determined by surface plasmon resonance-based measurements made on Biacore T100/T200 instruments (GE Healthcare, Piscataway, N.J.) at 25° C. using an anti-Fc capture assay approach. Binding kinetic measurements were made in the assay buffer HBS-EP+: 10 mM Hepes, pH 7.4, 150 mM NaCl, 3 mM EDTA, 0.05% Tween 20). For example, approximately 8000 RU of anti-Fc (species specific) polyclonal antibody (Thermo Fisher Scientific Inc., Rockford, Ill.) diluted in 10 mM sodium acetate (pH 4.5) was directly immobilized across a CM5 research grade biosensor chip using a standard amine coupling kit according to manufacturer's instructions and procedures at 25 μg/ml. Unreacted moieties on the biosensor surface were blocked with ethanolamine. The test antibody to be captured as a ligand was diluted in running buffer to ˜0.5 μg/mL and injected over anti-Fc surface at a flow rate of 10 μL/min. CD98 binding and dissociation were observed under a continuous flow rate of 80 μL/min. Human and cynomolgus monkey CD98 ECDs, both with a C-terminal His-tag, are used for this study (Table 3). After each cycle the anti-Fc capture surface was regenerated using 10 mM Glycine-HCl, pH 1.5. During the assay, all measurements were referenced against the capture surface alone (i.e., with no captured test antibody) and buffer-only injections (no antigen) were used for double referencing. For kinetic analysis, rate equations derived from the 1:1 Langmuir binding model were fitted simultaneously, globally and with mass transfer term included to multiple referenced antigen binding curves using Biacore T100/T200 Evaluation software.

[2] = biological target: T2, Human CD98 ECD with C-terminal His-tag (human, UniProt P08195 105-529); assay: as above
T2 construct: also called huCD98 ECD; recombinant human CD98 extracellular domain
T2 sequence: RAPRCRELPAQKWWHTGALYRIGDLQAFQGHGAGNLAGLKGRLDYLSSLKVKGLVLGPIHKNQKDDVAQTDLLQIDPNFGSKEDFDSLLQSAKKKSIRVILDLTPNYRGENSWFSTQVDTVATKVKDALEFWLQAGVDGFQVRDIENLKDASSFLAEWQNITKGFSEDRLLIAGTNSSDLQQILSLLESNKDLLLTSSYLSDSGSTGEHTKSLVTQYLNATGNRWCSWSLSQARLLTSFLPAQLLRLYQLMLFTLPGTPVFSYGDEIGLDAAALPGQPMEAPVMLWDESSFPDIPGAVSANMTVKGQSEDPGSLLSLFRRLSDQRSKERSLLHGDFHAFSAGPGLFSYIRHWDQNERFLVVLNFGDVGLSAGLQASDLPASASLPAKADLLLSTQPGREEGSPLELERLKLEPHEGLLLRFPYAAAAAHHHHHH
Procedure: as §1

[3] = test system: cynomolgus monkey CD98 ECD (cyCD98 ECD); assay: Biacore surface plasmon resonance binding kinetics, anti-Fc capture; details: framework re-engineered mAbs, Table 24
Procedure: as §1
(§2) The in vitro binding activities of the recombinant anti-CD98 chimeric mAbs were measured against both recombinant CD98 extracellular domain proteins (ECDs) and CD98-expressing cells. Briefly, binding kinetics of anti-CD98 chimera mAbs for human and cynomolgus CD98 ECDs were determined by surface plasmon resonance-based measurements as described in Example 4. Table 10 reported the association and dissociation rate constants for CD98 binding, ka (M^−1s^−1) and […], and the equilibrium dissociation constant KD (M) of the interaction between antibodies and the target antigen. Binding of anti-CD98 chimera mAbs for CD98 on cell surface was evaluated by flow cytometry against CHO-K1 cell line stably transfected to express human CD98 and 3T12 cell line stably transfected to express cynomolgus monkey CD98. Data was analyzed using Graphpad Prism software and EC50 values were reported as the concentration of antibody to achieve 50% of maximal binding to CD98-expressing cells (Table 10).
(§3) The binding kinetics of the recombinant anti-CD98 chimeric antibodies for purified recombinant CD98 protein (extracellular domain. ECD) were determined by surface plasmon resonance-based measurements, as described in the Example 4.

[4] = biological target: T3, human CD98 ECD (huCD98 ECD) (Homo sapiens, UniProt P08195); assay: as above; details: framework re-engineered mAbs, Table 24
T3 construct: His6 (with AAA linker) (C)
T3 sequence (P08195 with tags, fused parts or gaps): T2 sequence
Procedure: as §1, §2, §3

human CD98 = biological target: T4, human CD98 (Homo sapiens, UniProt P08195); assay: Binding of humanized anti-CD98 antibodies to human CD98; details: humanized variants of huAb3/huAb15 and framework engineered antibodies
T4 sequence (P08195 1-630 isoform P08195-1): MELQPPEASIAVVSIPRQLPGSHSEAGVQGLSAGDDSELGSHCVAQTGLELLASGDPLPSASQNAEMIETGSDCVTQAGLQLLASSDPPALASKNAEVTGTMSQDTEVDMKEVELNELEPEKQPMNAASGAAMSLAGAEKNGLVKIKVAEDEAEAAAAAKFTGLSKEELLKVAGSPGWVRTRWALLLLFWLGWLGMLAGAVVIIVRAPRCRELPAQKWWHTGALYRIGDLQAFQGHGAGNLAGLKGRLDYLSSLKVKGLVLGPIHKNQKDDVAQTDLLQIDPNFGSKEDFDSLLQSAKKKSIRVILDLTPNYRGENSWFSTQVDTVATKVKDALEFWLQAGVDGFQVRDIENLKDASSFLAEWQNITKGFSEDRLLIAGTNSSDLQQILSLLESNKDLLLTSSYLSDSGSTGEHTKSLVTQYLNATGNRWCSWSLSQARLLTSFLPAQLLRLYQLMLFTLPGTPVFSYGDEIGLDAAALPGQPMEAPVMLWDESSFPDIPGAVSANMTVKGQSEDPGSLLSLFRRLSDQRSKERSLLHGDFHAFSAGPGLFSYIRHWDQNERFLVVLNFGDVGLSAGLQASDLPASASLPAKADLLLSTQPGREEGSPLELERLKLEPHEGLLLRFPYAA

- ka, cynoCD98 ECD [3]: 33000 M⁻¹ s⁻¹
- kd, cynoCD98 ECD [3]: 8.7e-05 s⁻¹
- ka, huCD98 ECD [4]: 110000 M⁻¹ s⁻¹
- kd, huCD98 ECD [4]: 3.8e-05 s⁻¹
- binding to human CD98 (human CD98): maintained binding to human CD98
B5: huAb107: humanized framework engineered anti-CD98 antibody; heavy chain variable SEQ ID NO: 114, light chain variable SEQ ID NO: 112 (antibody, V domains shown)
VH: EVQLVESGGGLVQPGGSLRLSCAASGFTFSDYTMAWVRQAPGKGLEWVATIIYSGRGTYYRDAVKGRFTISRDNAKNTLYLQMNSLRAEDTAVYYCARQSDDTYYYWGYFDYWGQGTMVTVSS
VL: DIVMTQTPLSLPVTPGEPASINCKSSQSLLFSGNQKNYLAWYLQKPGQSPQLLIYWASTRQSGVPDRFSGSGSGTDFTLKISRVEAEDVGIYYCQQYYDVPYTFGQGTKLEIK

- ka, cynoCD98 ECD [3]: 26000 M⁻¹ s⁻¹
- kd, cynoCD98 ECD [3]: 0.00031 s⁻¹
- ka, huCD98 ECD [4]: 160000 M⁻¹ s⁻¹
- kd, huCD98 ECD [4]: 0.00017 s⁻¹
- binding to human CD98 (human CD98): maintained binding to human CD98
B6: huAb109: humanized framework engineered anti-CD98 antibody; heavy chain variable SEQ ID NO: 116, light chain variable SEQ ID NO: 117 (antibody, V domains shown)
VH: B5 VH with S54D, G55A
VL: B5 VL with D99S, V100S

Continued, molecule first:

B1: Ab13 (antibody, V domains shown)
VH: EVKLQQSGDELVRPGASVKISCKASGYTFTSYSMHWVKERPGQGLEWIGAIFPIIGTTEYNQKFKGKATLTADKSSNTANMELSRLTSEDSAVYYCARVYLSYFDYWGQGVMVTVSS
VL: DIQMTQSPSFLSASVGDRVTINCKASQNINKYLDWYQRKHGEAPKLLIYNTNNLQTGIPSRFSGSGSGTDYTLTISSLQPEDVATYFCLQHSSRYTFGAGTKLELK
notes: also called anti-CD98 hybridoma mAb Ab13
- Kd [1]: 47 nM
- koff [1]: 0.00088 s⁻¹
- kon [1]: 19000 M⁻¹ s⁻¹
- Kd [2]: 1.9 nM
- koff [2]: 5.5e-05 s⁻¹
- kon [2]: 29000 M⁻¹ s⁻¹

B2: huAb101: humanized framework engineered anti-CD98 antibody; heavy chain variable SEQ ID NO: 106, light chain variable SEQ ID NO: 107 (antibody, V domains shown)
VH: EVQLVESGGGLVKPGGSLRLSCATSGFTFIDYYMSWVRQAPGKGLEWLGFIRNKANRYTTEYSASVKGRFTISRDNSKSILYLQMNSLKTEDTAVYYCTRDRPAWFVYWGQGTLVTVSS
VL: B5 VL with N22S, F31Y, G33S, Q61E, I91V, D99S, V100Y, Q106G, L110V
- ka, cynoCD98 ECD [3]: 30000 M⁻¹ s⁻¹
- kd, cynoCD98 ECD [3]: 0.00067 s⁻¹
- ka, huCD98 ECD [4]: 290000 M⁻¹ s⁻¹
- kd, huCD98 ECD [4]: 0.0018 s⁻¹
- binding to human CD98 (human CD98): maintained binding to human CD98

B3: huAb103: humanized framework engineered anti-CD98 antibody; heavy chain variable SEQ ID NO: 109, light chain variable SEQ ID NO: 107 (antibody, V domains shown)
VH: B2 VH with N56Y, R57G
VL: B5 VL with N22S, F31Y, G33S, Q61E, I91V, D99S, V100Y, Q106G, L110V
- ka, cynoCD98 ECD [3]: 31000 M⁻¹ s⁻¹
- kd, cynoCD98 ECD [3]: 0.00044 s⁻¹
- ka, huCD98 ECD [4]: 180000 M⁻¹ s⁻¹
- kd, huCD98 ECD [4]: 0.00059 s⁻¹
- binding to human CD98 (human CD98): maintained binding to human CD98

B4: huAb105: humanized framework engineered anti-CD98 antibody; heavy chain variable SEQ ID NO: 111, light chain variable SEQ ID NO: 112 (antibody, V domains shown)
VH: B5 VH with D102H
VL: B5 VL
- ka, cynoCD98 ECD [3]: 38000 M⁻¹ s⁻¹
- kd, cynoCD98 ECD [3]: 5.3e-05 s⁻¹
- ka, huCD98 ECD [4]: 140000 M⁻¹ s⁻¹
- kd, huCD98 ECD [4]: 2.4e-05 s⁻¹
- binding to human CD98 (human CD98): maintained binding to human CD98
